Test results published in paper PMC6677171 (2019).

Target: Mis16 (S. pombe), full length, affinity tag removed (S. pombe, UniProt O94244 1-430)
Experiment: ITC

Chain of Mis16 (S. pombe), full length, affinity tag removed (O94244 whole entry): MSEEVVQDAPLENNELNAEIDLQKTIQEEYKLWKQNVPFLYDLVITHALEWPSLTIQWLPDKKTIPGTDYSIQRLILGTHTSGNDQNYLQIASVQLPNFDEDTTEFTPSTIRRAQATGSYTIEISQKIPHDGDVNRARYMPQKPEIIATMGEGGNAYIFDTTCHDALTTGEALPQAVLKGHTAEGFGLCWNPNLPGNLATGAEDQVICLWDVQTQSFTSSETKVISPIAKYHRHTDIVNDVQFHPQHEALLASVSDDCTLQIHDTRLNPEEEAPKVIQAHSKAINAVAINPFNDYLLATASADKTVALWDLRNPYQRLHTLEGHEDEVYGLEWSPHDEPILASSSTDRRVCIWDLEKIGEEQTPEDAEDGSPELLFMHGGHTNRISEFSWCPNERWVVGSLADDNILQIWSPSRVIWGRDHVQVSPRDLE

Binder: LHNRVFLRANVRAVKM [Mis19 C-terminal peptide (residues 97–112) R105A]
- Kd: > 1000 nM
